Assays:
[1] = molecular target: T1, human CD4, membrane-bound on cells (HPB-ALL cells, blood/PBMC CD4+ T cells, assay target cells) (human, UniProt P01730 26-458); assay: cell-based or functional assay
[2] = molecular target: T1, human CD4, membrane-bound on cells …; assay: competition FACS on HPB-ALL cells; inhibition of dB4-Alexa (250 ng/mL)
Procedure: On V-bottomed microplates, aliquots of 2×10⁵ cells in 0.1 mL per well were added, centrifuged, and liquid discarded. […] The cells were washed once and the liquid discarded after centrifugation. To each well, aliquots of 200 μL of binding buffer were added and transferred to microdilution tubes for flow cytometric analysis. The binding intensity (mean fluorescence intensity, MFI), based on an inlet of 5,000 cells per sample, was read on FACS.

[3] = molecular target: T1, human CD4, membrane-bound on cells …; assay: cell-based or functional assay; remark: listed apart in the source
[4] = molecular target: T1, human CD4, membrane-bound on cells …; assay: cell-based or functional assay; remark: listed apart in the source
[5] = molecular target: T1, human CD4, membrane-bound on cells …; assay: competition FACS on HPB-ALL cells; reference dB4
[6] = molecular target: T2, recombinant soluble CD4 (UniProt P01730 26-390, limits assumed); assay: competition ELISA on coated sCD4/p2704a mixture; reference dB4
T2 construct: also called sCD4; rsCD4

[7] = molecular target: T2, recombinant soluble CD4; assay: competition ELISA on coated sCD4/p2704a mixture; inhibition of B4-biotin (10 µg/mL)

B1: murine monoclonal antibody B4 (mAb B4) (antibody, V domains shown)
VH: QVQLQQSGPELVKPGASVRMSCKASGYTFTDYVIHWVKQRTGQGLEWIGEIYPGSGSAYSNAKFKDKATLTADKSSNTAYMQLSSLTSEDSAVYFCARRGNGTGFAYWGQGTLVTVSA
VL: DIVLTQSPASLAVSLGQRATISCKAGQSVDYDGDSYMNWYQQKPGQPPKLLIYVASNLESGIPARFSGSGSGTDFTLNIHPVEEEDAATYYCQQSYKDPLTFGAGTKLELK
modifications: N-glycosylated at Asn101 in the Fv
In the case of B1, the “IC50 entry inhibition, PhenoSense, control virus 92HT594” value [1] is reported as 0.021 µg/mL, the “IC50 entry inhibition, PhenoSense, control virus JRCSF” value [1] is reported as 0.034 µg/mL and the “IC50 entry inhibition, PhenoSense, control virus JRFL” value [1] is reported as 0.074 µg/mL. The “IC50 entry inhibition, PhenoSense, isolate 92/RW/008 (clade A)” value [1] was 0.026 µg/mL, the “IC50 entry inhibition, PhenoSense, isolate 92/RW/024 (clade A)” value [1] was 0.055 µg/mL and the “IC50 entry inhibition, PhenoSense, isolate 92/TH/005 (clade EA)” value [1] was 0.012 µg/mL. For the same binder, the “IC50 entry inhibition, PhenoSense, isolate 92/TH/006 (clade EA)” value [1] was 0.022 µg/mL, the “IC50 entry inhibition, PhenoSense, isolate 92/TH/007 (clade EA)” value [1] was 0.013 µg/mL and the “IC50 entry inhibition, PhenoSense, isolate 92/TH/009 (clade EA)” value [1] was 0.021 µg/mL. For the same binder, the “IC50 entry inhibition, PhenoSense, isolate 92/TH/019 (clade EA)” value [1] was 0.022 µg/mL, the “IC50 entry inhibition, PhenoSense, isolate 92/TH/020 (clade EA)” value [1] was 0.015 µg/mL and the “IC50 entry inhibition, PhenoSense, isolate 92/TH/021 (clade EA)” value [1] was 0.017 µg/mL. For the same binder, the “IC50 entry inhibition, PhenoSense, isolate 92/TH/022 (clade EA)” value [1] was 0.012 µg/mL, the “IC50 entry inhibition, PhenoSense, isolate 92/TH/024 (clade EA)” value [1] was 0.01 µg/mL and the “IC50 entry inhibition, PhenoSense, isolate 92/UG/001 (clade D)” value [1] was 0.018 µg/mL. For the same binder, the “IC50 entry inhibition, PhenoSense, isolate 92/UG/005 (clade D)” value [1] was 0.019 µg/mL, the “IC50 entry inhibition, PhenoSense, isolate 92/UG/021 (clade D)” value [1] was 0.017 µg/mL and the “IC50 entry inhibition, PhenoSense, isolate 92/UG/024 (clade D)” value [1] was 0.04 µg/mL. The “IC50 entry inhibition, PhenoSense, isolate 92/UG/035 (clade D)” value [1] was 0.011 µg/mL, the “IC50 entry inhibition, PhenoSense, isolate 92/UG/038 (clade D)” value [1] was 0.014 µg/mL and the “IC50 entry inhibition, PhenoSense, isolate 92/UG/046 (clade D)” value [1] was 0.015 µg/mL. For the same binder, the “IC50 entry inhibition, PhenoSense, isolate 93/BR/019 (clade BF)” value [1] was 0.013 µg/mL, the “IC50 entry inhibition, PhenoSense, isolate 93/BR/020 (clade F)” value [1] was 0.024 µg/mL and the “IC50 entry inhibition, PhenoSense, isolate 93/IN/101 (clade C)” value [1] was 0.016 µg/mL. The “IC50 entry inhibition, PhenoSense, isolate 93/RW/029 (clade A)” value [1] was 0.019 µg/mL, the “IC50 entry inhibition, PhenoSense, isolate 93/TH/057 (clade E)” value [1] was 0.023 µg/mL and the “IC50 entry inhibition, PhenoSense, isolate 93/TH/305 (clade E)” value [1] was 0.021 µg/mL. The “IC50 entry inhibition, PhenoSense, isolate 93/UG/053 (clade D)” value [1] was 0.02 µg/mL, the “IC50 entry inhibition, PhenoSense, isolate 93/UG/065 (clade D)” value [1] was 0.015 µg/mL and the “IC50 entry inhibition, PhenoSense, isolate 93/UG/067 (clade D)” value [1] was 0.016 µg/mL. For the same binder, the “IC50 entry inhibition, PhenoSense, isolate 93/UG/070 (clade D)” value [1] was 0.011 µg/mL, the “IC50 entry inhibition, PhenoSense, isolate 93/UG/077 (clade A)” value [1] was 0.012 µg/mL and the “IC50 entry inhibition, PhenoSense, isolate 93/UG/082 (clade D)” value [1] was 0.016 µg/mL. For the same binder, the “IC50 entry inhibition, PhenoSense, isolate 93/UG/086 (clade D)” value [1] was 0.015 µg/mL, the “IC50 entry inhibition, PhenoSense, isolate 94/UG/103 (clade A)” value [1] was 0.021 µg/mL and the “IC50 entry inhibition, PhenoSense, isolate 94/UG/105 (clade D)” value [1] was 0.021 µg/mL. For the same binder, the “IC50 entry inhibition, PhenoSense, isolate 94/UG/114 (clade D)” value [1] was 0.015 µg/mL, the “IC50 entry inhibition, PhenoSense, isolate 94/UG/117 (clade D)” value [1] was 0.017 µg/mL and the “IC50 entry inhibition, PhenoSense, isolate 94/UG/118 (clade D)” value [1] was 0.02 µg/mL. The “IC50 entry inhibition, PhenoSense, isolate 10215-6 (clade C)” value [1] was 0.018 µg/mL, the “IC50 entry inhibition, PhenoSense, isolate 10362 (clade C)” value [1] was 0.02 µg/mL and the “IC50 entry inhibition, PhenoSense, isolate 11657-3 (clade C)” value [1] was 0.025 µg/mL. For the same binder, the “IC50 entry inhibition, PhenoSense, isolate 20635-4 (clade C)” value [1] was 0.02 µg/mL, the “IC50 entry inhibition, PhenoSense, isolate 21068 (clade C)” value [1] was 0.011 µg/mL and the “IC50 entry inhibition, PhenoSense, isolate CA1 (clade A)” value [1] was 0.011 µg/mL. The “IC50 entry inhibition, PhenoSense, isolate CA2 (clade A)” value [1] was 0.018 µg/mL, the “IC50 entry inhibition, PhenoSense, isolate CA3 (clade A)” value [1] was 0.019 µg/mL and the “IC50 entry inhibition, PhenoSense, isolate CC1 (clade C)” value [1] was 0.016 µg/mL. The “IC50 entry inhibition, PhenoSense, isolate CC2 (clade C)” value [1] was 0.021 µg/mL, the “IC50 entry inhibition, PhenoSense, isolate CC3 (clade C)” value [1] was 0.012 µg/mL and the “IC50 entry inhibition, PhenoSense, isolate CC4 (clade C)” value [1] was 0.013 µg/mL. For the same binder, the “IC50 entry inhibition, PhenoSense, isolate CC5 (clade C)” value [1] was 0.019 µg/mL, the “IC50 entry inhibition, PhenoSense, isolate CC6 (clade C)” value [1] was 0.018 µg/mL and the “IC50 entry inhibition, PhenoSense, isolate CC7 (clade C)” value [1] was 0.013 µg/mL. The “IC50 entry inhibition, PhenoSense, isolate CC8 (clade C)” value [1] was 0.019 µg/mL, the “IC50 entry inhibition, PhenoSense, isolate CC9 (clade C)” value [1] was 0.02 µg/mL and the “IC50 entry inhibition, PhenoSense, isolate CC10 (clade C)” value [1] was 0.015 µg/mL. For the same binder, the “IC50 entry inhibition, PhenoSense, isolate CD1 (clade D)” value [1] was 0.016 µg/mL, the “IC50 entry inhibition, PhenoSense, isolate CF2 (clade F)” value [1] was 0.016 µg/mL and the “IC50 entry inhibition, PhenoSense, isolate CF3 (clade F)” value [1] was 0.024 µg/mL. For the same binder, the “IC50 entry inhibition, PhenoSense, isolate CF4 (clade F)” value [1] was 0.019 µg/mL, the “IC50 entry inhibition, PhenoSense, isolate CF5 (clade F)” value [1] was 0.018 µg/mL and the “IC50 entry inhibition, PhenoSense, isolate CF6 (clade F)” value [1] was 0.018 µg/mL. The “IC50 entry inhibition, PhenoSense, isolate CF7 (clade F)” value [1] was 0.019 µg/mL, the “IC50 entry inhibition, PhenoSense, isolate CF8 (clade F)” value [1] was 0.017 µg/mL and the “IC50 entry inhibition, PhenoSense, isolate CG1 (clade G)” value [1] was 0.018 µg/mL. The “IC50 entry inhibition, PhenoSense, isolate CG2 (clade G)” value [1] was 0.027 µg/mL, the “IC50 entry inhibition, PhenoSense, isolate CG3 (clade G)” value [1] was 0.016 µg/mL and the “IC50 entry inhibition, PhenoSense, isolate CG4 (clade G)” value [1] was 0.013 µg/mL. The “IC50 entry inhibition, PhenoSense, isolate CJ1 (clade J)” value [1] was 0.018 µg/mL, the “IC50 entry inhibition, PhenoSense, isolate CJ2 (clade J)” value [1] was 0.019 µg/mL and the “IC50 entry inhibition, PhenoSense, isolate CMU02 (clade EA)” value [1] was 0.011 µg/mL. For the same binder, the “IC50 entry inhibition, PhenoSense, isolate CMU06 (clade E)” value [1] was 0.026 µg/mL, the “IC50 entry inhibition, PhenoSense, isolate MW/93/959 (clade C)” value [1] was 0.019 µg/mL and the “IC50 entry inhibition, PhenoSense, isolate MW/93/960 (clade C)” value [1] was 0.01 µg/mL. The “IC50 entry inhibition, PhenoSense, isolate QZ4589 (clade E?)” value [1] was 0.036 µg/mL, the “average IC50 entry inhibition, PhenoSense, all viruses of Table 3” value [1] was 0.018 µg/mL and the IC50 [2] was 0.135 µg/mL. The “IC50 of HIV entry inhibition, pseudotype virus 92TH594 (R5/X4), U87-CD4+/CCR5+/CXCR4+ cells” value [3] was 0.05 µg/mL, the “IC50 of HIV entry inhibition, pseudotype virus HXB2 (X4), U87-CD4+/CCR5+/CXCR4+ cells” value [3] was 0.4 µg/mL and the “IC50 of HIV entry inhibition, pseudotype virus JRCSF (R5), U87-CD4+/CCR5+/CXCR4+ cells” value [3] was 0.04 µg/mL. For the same binder, the “IC50 of entry inhibition, second cluster, panel of over 850 Env pseudotype viruses” value [4] was about 10 µg/mL, the “IC50 ratio of B4 to dB4” value [5] was 0.69 ratio and the “IC50 ratio of B4 to dB4” value [6] was 0.68 ratio. For the same binder, the IC50 [7] was 5.54 µg/mL.

— patent US20170369576A1 (UBI US, published 2017)
